{"source": "the DeepSol protein solubility set", "data": [{"test": "soluble on expression in E. coli; label from the status in PepcDB or PDB records", "values": [{"sequence": "MAHHHHHHMFAALSWLLDLDQGHAASSSSTSSCSSYSGSLDADAGVETDPAANHTTFSDAGGQLLAELHISSVAAATLSRSASEAAAPPRGAVYSSARHLEESFADLEARKAEFFAPSPCQEPAEDAGLGLSSLTERGGTPVSPLSCKIVPLGSLCAYANETVSLSPIASPVPAPVSATVATLLAPTHEDERLLLVSEGVMLSARLSSPSRGGPRAAAERAKITNNDGSATGAMGAGVAAPTQRSRILDWDREMHARPQASPPPGLSANRGERAVRSGTGVQERSEQIADAEPGEARLVRGAMKAAFMLSTPPHTPALGAAAFAPAAVPLHPSPPFLGTTVGARDAAVPGYSIERIHDTPAQEDSGVVYLADGLATVTSMDVGDLHRQAEQSSPPLTHPLAAQLTTPSHTKQPHFDFS", "soluble on expression in E. coli": "not soluble"}, {"sequence": "MWKNGAMRGCNKETGEFLGPSRSQQRRTALEVLVLSEKLAALTPAQLAKLPIPERLLPHITETKRITSHIARKRQLAFLAKQMRREDDTTLEAIREKLNASGIQAQREVATLHRTEQWRKRLLEEGDSALTELLNQYPQADCGKLRQLLRNSKTEQARNKAPQAFRELYQVLHGLIITQNSDNQHQTPQ", "soluble on expression in E. coli": "soluble"}, {"sequence": "MPLTNNSTTKPQEIAAIDLGSNSFHMVIARVVNGALQVLGRLKQRVHLADGLDSNNMLSEEAIERGLACLALFAERLQGFSPDNVCIVGTHTLRQAANAETFLKRAAEVIPYPIEIISGQEEARLIFMGVEHTQPEKGRKLVIDIGGGSTEMVIGEDFEPLLVESRRMGCVSFAQQFFPGGEISKNNFRRARLAAAQKLENLAWQYRIQGWQYALGASGTIKATYEVLVEMGEKDGLITPERLEMLVENVLQFKQFSALSLPGLSEDRQSVFVPGLAILCGVFDALAIKTLRLSDGALREGVLYEMEGRFRHQDIRQRTAKSLADHYNIDREQARRVLETTEQLYTQWLAQNTKLVQPQLEALLKWAAMLHEVGLSINHSGMHRHSAYILQNTNLPGFNQEQQTLLATLVRMHRKAIKLDELPRLNLFKKKYYLPLIQLLRLSTLLNNQRQSTTTPESLRLITDDSHWTLRFPHGYLTQNSLVQLDFEREQAYWDDVVGWKLVIEEEEPDEAAKVAPEE", "soluble on expression in E. coli": "soluble"}, {"sequence": "MGSDKIHHHHHHMAFIAGEIAAVLDLPEVLRRRLFVAALLHDVGALSPEEKMDLYASKVEECDTHCIRGARLLHQVDGFGEEGRVLRLHHATLRDGSLADVDEDTARLAQIVHLSDLVDRALDRGRYVLHQADTMCDMARDLARCDFEVSIVRAFLEVARREDFWLQMVLPTLGQHLEAISPCRGEMLDACGVEVHAGLVQGMVDFRSSFTAAHSAGVAEAADALGGYCDLSPERRVVLRIAGLLHDLGKMAVPTSILEKPSGLTKAEFAFMRQHTFHTYRLLRGVDGLGGMAAWAAYHHEKLDGSGYPFHLEGRALDPQARIIGVADIFTAMAEDRPYRKGQGREGVLRVLRDECTTGRVDGELVETVAESYPDMVGRVLDAQHAARSRFSDVLQPAGEKGAKADQST", "soluble on expression in E. coli": "not soluble"}, {"sequence": "SLRTYFAQRAEMEQLAATEAMLRRQIADLEEQQVKLADPAYIAAQARERLGFVMPGDIPFQVQLPSTPLAPPQPGSDAATATNNEPWYTALWHTIADDPHLPPAAPPAPEPGRPGPLPPASPNPEQPGG", "soluble on expression in E. coli": "soluble"}, {"sequence": "MIFSVRGEVLEVALDHAVIEAAGIGYRVNATPSALATLNQGSQARLVTAMVVREDSMTLYGFSDAENRDLFLALLSVSGVGPRLAMATLAVHDAAALRQALADSDVASLTRVPGIGRRGAERIVLELADKVGPVGASGLTVGTAADGNAVRGSVVEALVGLGFAAKQAEEATDQVLDGELGKDGAVATSSALRAALSLLGKTR", "soluble on expression in E. coli": "soluble"}, {"sequence": "QILVVRNQVIFPYNGFELDVGRERSKKLIKALKNLKTKRLVLVTQKNSDQLNPEFDDIYHCGTLCDIDEIIEVPSEDGKTADYKIKGKGLQRVAITSFSDADLTKYDHHFLNSTLTENKALDKLLERIFPDKEDFAEILDSLNSFLELQELKKLSKVPKDIKRYDIITFKLASLIFKDITLQQAILEENDIEKRLQKIIGS", "soluble on expression in E. coli": "soluble"}, {"sequence": "MSLNGDYQLTIDKMLESGVSSNPNQIINYSGKKTFTYKEFRERVYRLAKALISIGVKKGDTVAVIDWDTYVYLEAYFAVPMIGAVLHTVNVRYPQDLIYYTMDHAEDKYVIVRDEFVPILSKNKEAFYFIKGWIIYSEYGNVPDELSPKYIYDELMSKNYDIELPEISENDLATTFYTSGTTGIPKGVQFTHRQIVLHAISSGLALSDRPISLTADDVIMPLVPMFHVHAWGVPYMTIMSGRQYVLPGRYDFDHIIDLIAQENITVIAMVPSILYMIVTNPNVGKIAGRKIRAIIGGGALPEGLQKAAEKLGIMAISGYGLSETAPILTLATYNSDVKKLPLEEQKKYHLKTGIPIPLVQLRVIDDKWNDVPRDEKTIGEIVVRAPWLTSVYVKNKEGTEALWKGGWMHTGDLAVMDKFGYIKIVDREKDAVKSGGEFIPSLILEDAISACPGVVENAVVGKPHEKWGERPVAFYTGTAKPEEIRKCLEDIVRQGRIAKFWIPDDFINVKEFVKTSTGKIDKKVLREMLKKEGHHHHHH", "soluble on expression in E. coli": "soluble"}, {"sequence": "MSDLENKKAEEAPKKRPYNLREKKEKKAAYRSLIRPELADELYDKILNIVVVQKKYKDPDYSAKDLAKELKTNTRYLSAVVNSRFGMNYSCLLNEYRVKDALHLLTDKRYADKNVEEISAMVGFANRQSFYAAFYKNVGETPNGYRKKHAESKK", "soluble on expression in E. coli": "not soluble"}, {"sequence": "MSLDSGTLGTPPPEQGPTPPTTLPDVPAPVIPSASVTSAASDFLAALHPPVTVPDPAPPPPPAPAAGNPPDTVTGDSVLQRILRGPTGPGTTSLAPAVRYGRQPGPEAPASAPPAAGRAVPGLYHHPVPEPDPVRVEEVSRRIKRWAEDEVQLYPEEWEGQFDGFSVGRYMVGCHPDAPTVDHLMLATRLMVAENAVDDCYCEDHGGSPVGLGGRLLLAHTAIDHFHSTAEYTPTWQASLAADAPRRAYDSAMGYFVRAATPSQSDRYRHDMARLHLGYLAEGAWAQTGHVPEVWEYLAMRQFNNFRPCPTITDTVGGYELPADLHARPDMQRVIALAGNATTIVNDLYSYTKELNSPGRHLNLPVVIAEREQLCERDAYLKAVEVHNELQHSFEAAAADLAEACPLPPVLRFLRGVAAWVDGNHDWHRTNTYRYSLPDFWEGHHHHHH", "soluble on expression in E. coli": "soluble"}, {"sequence": "MSLASIDFRNKINWHRRYRSPQGVKTEHEILRIFESDRGRIINSPAIRRLQQKTQVFPLERNAAVRTRLTHSMEVQQVGRYIAKEILSRLKEQDRLEEYGLDALTGPFESIVEMACLMHDIGNPPFGHFGEAAINDWFRQRLHPEDAESQPLTHDRCVVSSLRLQEGEENLNDIRRKVRQDICHFEGNAQGIRLVHTLMRMNLTWAQVGGILKYTRPAWWRGPVPDSHRYLMKKPGYYLSEEKYIARLRKELQLAPYSRFPLTWIMEAADDISYCVADLEDAVEKRIFSVEQLYHHLYHAWCHHEKDSLFELVVGNAWEKSRANTLSRSTEDQFFMYLRVNTLNKLVPYAAQRFIDNLPQIFAGTFNQALLEDASGFSRLLELYKNVAVEHVFSHPDVEQLELQGYRVISGLLDIYQPLLSLSLNDFRELVEKERLKRFPIESRLFQKLSTRHRLAYVEVVSKLPTDSAEYPVLEYYYRCRLIQDYISGMTDLYAWDEYRRLMAVEQEGHHHHHH", "soluble on expression in E. coli": "soluble"}, {"sequence": "SSLIQAGQQTRFTTDASAAVEPADSARETWSRGVLVAWDMTLGDVVKELRRYRSGYLGIAPEVAGLRVFGSFPLRDTDDTLTMLASALPIRIQRTLPWWVSIEARTDADPHR", "soluble on expression in E. coli": "not soluble"}, {"sequence": "MGSDKIHHHHHHMKVFFVVDIKSGKVVAGKGGERESYPPITAISRLVSSDDALKVIEEIKPRFLYAADLDRIVGLGDNFSLLSKLSKRVEELIADCGFRSPEELEKLPFTPVVGTETFDITQLDRKCYVSLDFKEKFLDASGKFESWEEVVKFLNSFDLYGLIVLPIHAVGAMKPDLSVLTKTLELSEHPVMLGGGISGVEDLERLKEMGCSGVLVATAVHKGKIPLDVVRKGKF", "soluble on expression in E. coli": "not soluble"}, {"sequence": "MAANGVATLNSSGKLAQMPSASDVGALPITGGEMQGALKLKANQYGGSGPADEKYALDCQNSNIVNVNRILTADPAGSASEGWGFQREDDPDAYDVIWASNGTLYFTPGFKYNTPPYPANQRVLATTDNIALTNYLRQEYNKLKESEGTPTLNDIINGFGFCYNDSSNGAGLDGTYLTVSGMLDNKYRLQLLGQYNGSNWLAYRTRNGDEQSWNPWHKVLTDNINAAISARHQYTSSSYPQIYGNGILQLGGDSRNEYGVVLRSNGTDEANAFRPSVNAGTTGHLYLGVANQKWRAVFAQNGTIQTSDRNAKHDITDLDPEKITAFIMGLKPSSYVFNDADSGRTHWGLISQDIEELFPQLGMTSMDFAGFIKSPKTEDYYEDVPETVTDEETGEEKTVTRKELKTRTVEGEYIYSLRYDEFIAPLICMVQRQQRQIEYLERRLSASESKEEAKLEHHHHHH", "soluble on expression in E. coli": "not soluble"}, {"sequence": "MSDCNWTNPLCNTSLLLASGYALWSCASKKNKKETKTETKKSHDCPPQTIEPVKDEKNSNSEEKKTTSSNNEVPPQKKLIGNDEVKKEKKKSEDDLLDVKKTASKEDDKKRMDKKDPSKKLSKEKLREEKKEQSKKVNKEKKMNKSESVDEDNEQPPEPGSDPRKIWAFKAAKMKCQAISKLHQDKIKGYMPPNCTYTAYDANPDLNRYADVRCIEETRVVLKNHDRDYIHASWMRMPGKDQSTYITTQGPLPETLSDFWHMIYQEKIAYVLMLCTLFEGGVEKCALYYPEKLGEVVKFGKYEITLTECKEEAIAGTIWNALTVTNTEDASSEPLYMNHVQVPWWPDQLAPEDARPMIELYKWVKKVNPKETPICVHCSAGVGRTATFVGIDYATIRIMENPNIEMLDIVREMRAMRFQAVQSHMQFLFLYVVLMEYFIGEGVVERTGRVDTFMTQYKKHAQKKLAKRAAQNQQGEKLAAEEKEKDKVKV", "soluble on expression in E. coli": "soluble"}, {"sequence": "GSHMKNSVSVDLPGSMKVLVSKSSNADGKYDLIATVDALELSGTSDKNNGSGVLEGVKADASKVKLTISDDLGQTTLEVFKSDGSTLVSKKVTSKDKSSTEEKFNEKGELSEKKITRADKSSTEEKFNEKGELSEKKITRADKSSTEEKFNEKGELSEKKITRADKSSTEEKFNEKGEVSEKIITRADGTRLEYTGIKSDGSGKAKEVLKGYVLEGTLTAEKTTLVVKEGTVTLSKNISKSGEVSVELNDTDSSAATKKTAAWNSGTSTLTITVNSKKTKDLVFTSSNTITVQQYDSNGTSLEGSAVEITKLDEIKNALK", "soluble on expression in E. coli": "soluble"}, {"sequence": "MSANREKKKLETVIKNLEKKIEDQKANAGTKKKEAEQKENLRIEQEKIKKKKEQERLEVPPTPFDDLNSQSAKTLRVEKAIENLKFLGGKSTEFYRRVIGRLGKSGLFKWKMSKREGFYLYHACGLTRRKLRTLKAHFSKSGCSDPFPSVHEIMKIEKIVGAGEQFSVTEHDKDGEEVVAAHLVDVIKYLTDRIHHLIDNGNLVIGTDPIWLTILGDKGSDEFKLCLSIGNAKNPNSCCHLIPLGIFNDDEKSSNISNDLTPIVAQLNSLKELKLKVAGTDVTVPVQQFLGGDMKFQYDVLGHQGASSQFHCMFCNSLKSRLIGGYIRGANVTLRTAASYKENSGKDGNNYARKKSVSIRSRQSTKCDPRSLHTLMGLAQRFGFDYLILWAARIDNPTLTLTKTDIKRSKISKGRLNQLQESLKKLEKVVSGMETVQQVFQNYKNKRVDGRSCGETCHASICLFKDKKMKSAKGYDGRKVECNTCFQAVHAVCGGLWTLDDWELTISIFRENNRHLNELRSDLREKKSVIFSQGLKIDMLESQLSQRQTEFEYRSANAAANSFTRKDHGKLYHCFDIKNQDSTSVSDTMTCRCSMKPCVFYLDSLPAAKTPSLTQLRRIVVLMQQKPSQKIDPKEMLLMTSMHLPFPMQEPSTEYFNAISGCSTSYICVEEMGIGFSFRRHVEKLWMKNLPPATNGTDKAANDLKNQLKVRRNVGKHDRTSRYARKSHN", "soluble on expression in E. coli": "not soluble"}, {"sequence": "MGSDKIHHHHHHMQFNKPLRQGVLQKRYKRFLADIDFGDNETTTTHCPNTGAMTGCAEPGFTAWCSVSDNPKRKYSLTWELAQNNNGEMIVVNTQHANRMAGELLQTNLVPELSQWQELKPEQRYGKEKSRIDWWGVDQHNRECFIEVKSVTLADASQGYFPDAVSQRAHKHLNELMQVVADGHRAVQLYMVMHDGIERVSPAAHIDSQYAELCRKAASVGVEFYAVKCRASAKEIKLERPVPVSL", "soluble on expression in E. coli": "not soluble"}]}]}
